26 molecules from patent publication US20260201064A1 (ISU ABXIS, published 2026) can be followed below.

First the molecules themselves.
T1: recombinant human ASM protein (human, UniProt P17405 47-630)
T1 construct: Recombinant human ASM in solution; also called acid sphingomyelinase (ASM) protein
T1 sequence: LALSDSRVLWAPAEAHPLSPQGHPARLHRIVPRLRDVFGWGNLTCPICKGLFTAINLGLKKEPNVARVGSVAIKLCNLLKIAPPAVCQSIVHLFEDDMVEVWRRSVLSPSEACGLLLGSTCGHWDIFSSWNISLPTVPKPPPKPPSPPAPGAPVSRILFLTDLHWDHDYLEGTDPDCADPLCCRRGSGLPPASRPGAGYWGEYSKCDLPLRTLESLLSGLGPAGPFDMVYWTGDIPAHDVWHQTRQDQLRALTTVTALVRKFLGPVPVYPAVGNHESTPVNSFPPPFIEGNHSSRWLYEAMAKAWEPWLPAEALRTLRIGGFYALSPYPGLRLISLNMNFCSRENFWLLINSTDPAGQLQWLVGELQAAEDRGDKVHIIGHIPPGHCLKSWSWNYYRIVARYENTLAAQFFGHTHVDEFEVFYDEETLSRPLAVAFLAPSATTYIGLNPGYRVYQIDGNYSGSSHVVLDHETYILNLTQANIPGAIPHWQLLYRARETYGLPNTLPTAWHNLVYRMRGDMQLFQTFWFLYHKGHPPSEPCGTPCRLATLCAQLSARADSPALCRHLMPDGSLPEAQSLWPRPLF

B1: #9104v-H02 (antibody, human IgG4 S228P, lambda, V domains shown)
VH: EVQLLESGGGLVQPGGSLRLSCAASGFTFSNYYMSWVRQAPGKGLEWVSGIYFGSGDIRYADSVKGRFTISRDNSKNTLYLQMNSLRAEDTAVYYCARDTPGFDYWGQGTLVTVSS
VL: QSVLTQPPSASGTPGQRVTISCTGSSSNIGNNAVNWYQQLPGTAPKLLIYYDSHRPSGVPDRFSGSKSGTSASLAISGLRSEDEADYYCGAWDYSLSAYVFGGGTKLTVLG
notes: Full-length IgG, lambda
B2: #9104v-H33 (antibody, human IgG4 S228P, lambda, V domains shown)
VH: B1 VH with I51V, F53Y, G54P, D57N, I58P, R59Y
VL: B1 VL
notes: Full-length IgG, lambda
B3: #9104v-H17 (antibody, human IgG4 S228P, lambda, V domains shown)
VH: B1 VH with Q39R, F53Y, D57T, I58P, R59Y, D62A
VL: B1 VL
notes: Full-length IgG, lambda
B4: #9104v-H13 (antibody, human IgG4 S228P, lambda, V domains shown)
VH: B1 VH with F53Y, D57I, I58P, R59Y, D62N
VL: B1 VL
notes: Full-length IgG, lambda
B5: #9104v-H18 (antibody, human IgG4 S228P, lambda, V domains shown)
VH: B1 VH with F53Y, D57T, I58P, R59Y, A61S
VL: B1 VL
notes: Full-length IgG, lambda
B6: #9104v-H25 (antibody, human IgG4 S228P, lambda, V domains shown)
VH: B1 VH with I51T, F53Y, G54A, D57G, R59Y
VL: B1 VL
notes: Full-length IgG, lambda
B7: #9104v-H19 (antibody, human IgG4 S228P, lambda, V domains shown)
VH: B1 VH with F53Y, D57V, I58P, R59Y
VL: B1 VL
notes: Full-length IgG, lambda
B8: #9104v-H05 (antibody, human IgG4 S228P, lambda, V domains shown)
VH: B1 VH with F53Y, S55G, G56V, D57K, R59Y
VL: B1 VL
notes: Full-length IgG, lambda
B9: #9104v-H10 (antibody, human IgG4 S228P, lambda, V domains shown)
VH: B1 VH with F53Y, S55N, D57I, I58P, R59Y, G66D
VL: B1 VL
notes: Full-length IgG, lambda
B10: #9104v-H22 (antibody, human IgG4 S228P, lambda, V domains shown)
VH: B1 VH with I51L, F53Y, S55G, D57T, I58P, R59Y
VL: B1 VL
notes: Full-length IgG, lambda
B11: #9104v-H14 (antibody, human IgG4 S228P, lambda, V domains shown)
VH: B1 VH with F53Y, D57K, I58P, R59Y
VL: B1 VL
notes: Full-length IgG, lambda
B12: #9104v-H31 (antibody, human IgG4 S228P, lambda, V domains shown)
VH: B1 VH with I51V, F53Y, D57T, I58P, R59Y
VL: B1 VL
notes: Full-length IgG, lambda
B13: #9104v-H26 (antibody, human IgG4 S228P, lambda, V domains shown)
VH: B1 VH with I51T, F53Y, G54A, D57N, I58A, R59Y
VL: B1 VL
notes: Full-length IgG, lambda
B14: #9104v-H30 (antibody, human IgG4 S228P, lambda, V domains shown)
VH: B1 VH with I51T, F53Y, G54S, D57G, R59Y
VL: B1 VL
notes: Full-length IgG, lambda
B15: #9104v-H27 (antibody, human IgG4 S228P, lambda, V domains shown)
VH: B1 VH with I51T, F53Y, G54D, D57Y, I58V, R59Y
VL: B1 VL
notes: Full-length IgG, lambda
B16: #9104v-H11 (antibody, human IgG4 S228P, lambda, V domains shown)
VH: B1 VH with F53Y, D57I, I58P, R59Y, G66E
VL: B1 VL
notes: Full-length IgG, lambda
B17: #9104v-H24 (antibody, human IgG4 S228P, lambda, V domains shown)
VH: B1 VH with I51L, F53Y, D57I, I58P, R59Y
VL: B1 VL
notes: Full-length IgG, lambda
B18: #9104v-L46 (antibody, human IgG4 S228P, lambda, V domains shown)
VH: B1 VH with F53Y, D57N, R59Y
VL: B1 VL with H54Y, P56S, S57W
notes: Full-length IgG, lambda
B19: #9104v-L49 (antibody, human IgG4 S228P, lambda, V domains shown)
VH: B1 VH with F53Y, D57N, R59Y
VL: B1 VL with S53T, H54F, S57T
notes: Full-length IgG, lambda
B20: #9104v-L47 (antibody, human IgG4 S228P, lambda, V domains shown)
VH: B1 VH with F53Y, D57N, R59Y
VL: B1 VL with H54Y, R55T
notes: Full-length IgG, lambda
B21: #9104v-L55 (antibody, human IgG4 S228P, lambda, V domains shown)
VH: B1 VH with F53Y, D57N, R59Y
VL: B1 VL with S53W, H54Y, S57T
notes: Full-length IgG, lambda
B22: #9104v-L52 (antibody, human IgG4 S228P, lambda, V domains shown)
VH: B1 VH with F53Y, D57N, R59Y
VL: B1 VL with S53V, S57R
notes: Full-length IgG, lambda
B23: #9104v-L65 (antibody, human IgG4 S228P, lambda, V domains shown)
VH: B1 VH with F53Y, D57N, R59Y
VL: B1 VL with S53Y, H54Y, R55Q, P56S
notes: Full-length IgG, lambda
B24: #9104v-L39 (antibody, human IgG4 S228P, lambda, V domains shown)
VH: B1 VH with F53Y, D57N, R59Y
VL: B1 VL with H54Y, S57G
notes: Full-length IgG, lambda
B25: #9104v-L63 (antibody, human IgG4 S228P, lambda, V domains shown)
VH: B1 VH with F53Y, D57N, R59Y
VL: B1 VL with S95W, S97G
notes: Full-length IgG, lambda
B26: #9104v-L64 (antibody, human IgG4 S228P, lambda, V domains shown)
VH: B1 VH with F53Y, D57N, R59Y
VL: B1 VL with S53Y, H54F, R55S, P56H
notes: Full-length IgG, lambda

Where a chain is given by its changes, count along the chain named.

One assay concerns the target T1, recombinant human ASM protein. Nature of the assay: BLI (Octet), antibody on AHC sensor. The method, then: (§1) The binding affinity, to the ASM protein, of the produced antibodies specifically binding to the ASM protein and the interactive dynamics therebetween were measured using an Octet® QK384 system (Pall Life Sciences).
(§2) First, an antibody specifically binding to the ASM protein produced in Example 1 was captured using an anti-human IgG Fc capture (AHC) biosensor, and 1.25, 2.5, 5, 10, or 20 nM recombinant human ASM protein solution was added thereto. […] The association constant (Kₐ), dissociation constant (Kd), and equilibrium dissociation constant (KD) for each antibody were determined using Octet® analysis software (Pall Life® Sciences). As a result, the binding affinities, to the human ASM protein, of the antibodies with mutations in the heavy chain CDR regions of the antibody #9104 as depicted in Table 1 are shown in Table 5, and the binding affinities, to the human ASM protein, of the antibodies with mutations of the light chain CDR regions in the antibody #9104 as depicted in Table 2 are shown in Table 6.
For orientation: BLI is a label-free optical method that tracks binding on a fibre tip over time.
In general, Kd refers to the free concentration of one partner at which half of the binding sites on the other are occupied at equilibrium, for simple one-to-one binding. A word on the koff: it is a measure of how fast the partners let go of each other. A word on the kon: it is the second-order rate constant of association. With B1, the Kd amounted to 1.2 nM, the koff was 0.000333 s⁻¹ and the kon is 278000 M⁻¹ s⁻¹.
Taken in the same sequence, the figures for B2 were 0.517 nM, 0.000108 s⁻¹ and 208000 M⁻¹ s⁻¹.
On the same counts, the results for B3 are 0.719 nM, 0.000243 s⁻¹ and 338000 M⁻¹ s⁻¹.
Taken in the same sequence, the figures for B4 were 0.803 nM, 0.000185 s⁻¹ and 231000 M⁻¹ s⁻¹.
On to B5, for which the Kd amounted to 2.69 nM, the koff stood at 0.000264 s⁻¹ and the kon worked out at 97900 M⁻¹ s⁻¹.
Taken in the same sequence, the figures for B6 were 0.917 nM, 0.00019 s⁻¹ and 207000 M⁻¹ s⁻¹.
On the same counts, the results for B7 are 0.692 nM, 0.000184 s⁻¹ and 266000 M⁻¹ s⁻¹.
Taken in the same sequence, the figures for B8 were 1.03 nM, 0.000177 s⁻¹ and 171000 M⁻¹ s⁻¹.
In the case of B9, the Kd is 0.651 nM, the koff came to 0.000154 s⁻¹ and the kon is 237000 M⁻¹ s⁻¹.
On the same counts, the results for B10 are 0.798 nM, 0.000157 s⁻¹ and 197000 M⁻¹ s⁻¹.
Taken in the same sequence, the figures for B11 were 0.857 nM, 0.000281 s⁻¹ and 328000 M⁻¹ s⁻¹.
As to B12, the Kd is 0.532 nM, the koff is 0.000141 s⁻¹ and the kon is 266000 M⁻¹ s⁻¹.
Taken in the same sequence, the figures for B13 were 1.74 nM, 0.000305 s⁻¹ and 175000 M⁻¹ s⁻¹.
On the same counts, the results for B14 are 0.762 nM, 0.000151 s⁻¹ and 199000 M⁻¹ s⁻¹.
Taken in the same sequence, the figures for B15 were 0.598 nM, 0.000165 s⁻¹ and 276000 M⁻¹ s⁻¹.
B16: the Kd turned out to be 0.781 nM, the koff was determined as 0.000195 s⁻¹ and the kon worked out at 250000 M⁻¹ s⁻¹.
Taken in the same sequence, the figures for B17 were 1.01 nM, 0.000206 s⁻¹ and 204000 M⁻¹ s⁻¹.

For a further assay the target is unchanged. Put plainly: BLI (Octet), antibody on AHC sensor. This is another data set of the same source. On the procedure:
as §1, §2
Take B18: the dissociation constant (Kd) stood at 0.88 nM, the koff came to 0.000258 s⁻¹ and the kon was 293000 M⁻¹ s⁻¹.
On the same counts, the results for B19 are 0.785 nM, 0.000225 s⁻¹ and 286000 M⁻¹ s⁻¹.
Taken in the same sequence, the figures for B20 were 1.41 nM, 0.000415 s⁻¹ and 294000 M⁻¹ s⁻¹.
On the same counts, the results for B21 are 0.879 nM, 0.00017 s⁻¹ and 193000 M⁻¹ s⁻¹.
Consider B22, for which the Kd worked out at 0.982 nM, the koff is 0.000264 s⁻¹ and the kon is 269000 M⁻¹ s⁻¹.
With B23, the Kd is 0.532 nM, the koff was found to be 0.000192 s⁻¹ and the kon stood at 360000 M⁻¹ s⁻¹.
On to B24, for which the Kd stood at 1.52 nM, the koff turned out to be 0.000443 s⁻¹ and the on-rate (kon) worked out at 291000 M⁻¹ s⁻¹.
On the same counts, the results for B25 are 1.41 nM, 0.000255 s⁻¹ and 181000 M⁻¹ s⁻¹.
On the same counts, the results for B26 are 0.505 nM, 0.000193 s⁻¹ and 383000 M⁻¹ s⁻¹.
